tested on: kinases of Table 6 on Myelin Basic Protein (MBP); experiment: Kinase assay using MBP substrate, ProQ Diamond stain (Table 6); assay type: biochemical; conditions: kinase printed on MBP-coated slide; 20 uM ATP, 30° C.; ProQ Diamond Microarray Stain; graded Strong/Weak/Negative
Procedure: In this illustrative example, four-well slides were designed with a hydrophobic mask surrounding 4-wells of aldehyde- or epoxy-coated glass (smooth or ES grade; Erie Scientific (Portsmouth, N.H.)). […] Bovine, dephosphorylated, Myelin Basic Protein (MBP) was purchased from Upstate Biotechnology (#13-110). MBP was diluted to 1 mg/ml in PBS, applied to the slide surface, covered with a coverslip, and left overnight at 4° C. to coat the slide with the MBP. Slides were washed 3 times with water and spun dry before printing.
Kinases were purchased from Panvera (Invitrogen, Carlsbad, Calif.), diluted in printing buffer (50 mM Tris pH 7.5, 25% glyercol, 0.05% TritonX-100, 2 mM DTT) and deposited using a GeneMachine OmniGrid100. Slides were stored at −20° C.
Reactions were performed following removal of the slide from the freezer. Reaction buffer (20 mM HEPES pH 7.5, 4 mM MgCl2, 2 mM DTT, 20 uM ATP, 5% DMSO) was added with or without inhibitor, a coverslip applied, and the slide placed at 30° C. for the appropriate reaction time. The slide was washed with water to stop the reaction (3 times) and spun dry. ProQ Diamond Microarray Stain (Invitrogen #P33706) was applied, covered with a coverslip, and the slide was incubated in the dark at room temperature for 30 minutes. The slide was destained and washed three times with water, and spun dry.

Molecule | MBP Kinase Activity
EPHA1 (protein, left off: a dimerising Fc or GST) RSRRAQRQRQQRQRDRATDVDREDKLWLKPYVDLQAYEDPAQGALDFTRELDPAWLMVDTVIGEGEFGEVYRGTLRLPSQDCKTVAIKTLKDTSPGGQWWNFLREATIMGQFSHPHILHLEGVVTKRKPIMIITEFMENGALDAFLREREDQLVPGQLVAMLQGIASGMNYLSNHNYVHRDLAARNILVNQNLCCKVSDFGLTRLLDDFDGTYETQGGKIPIRWTAPEAIAHRIFTTASDVWSFGIVMWEVLSFGDKPYGEMSNQEVMKSIEDGYRLPPPVDCPAPLYELMKNCWAYDRARRPHFQKLQAHLEQLLANPHSLRTIANFDPRMTLRLPSLSGSDGIPYRTVSEWLESIRMKRYILHFHSAGLDTMECVLELTAEDLTQMGITLPGHQKRILCSIQGFKD | Strong
DYRK3 (protein, left off: a dimerising Fc or GST) MGGTARGPGRKDAGPPGAGLPPQQRRLGDGVYDTFMMIDETKCPPCSNVLCNPSEPPPPRRLNMTTEQFTGDHTQHFLDGGEMKVEQLFQEFGNRKSNTIQSDGISDSEKCSPTVSQGKSSDCLNTVKSNSSSKAPKVVPLTPEQALKQYKHHLTAYEKLEIINYPEIYFVGPNAKKRHGVIGGPNNGGYDDADGAYIHVPRDHLAYRYEVLKIIGKGSFGQVARVYDHKLRQYVALKMVRNEKRFHRQAAEEIRILEHLKKQDKTGSMNVIHMLESFTFRNHVCMAFELLSIDLYELIKKNKFQGFSVQLVRKFAQSILQSLDALHKNKIIHCDLKPENILLKHHGRSSTKVIDFGSSCFEYQKLYTYIQSRFYRAPEIILGSRYSTPIDIWSFGCILAELLTGQPLFPGEDEGDQLACMMELLGMPPPKLLEQSKRAKYFINSKGIPRYCSVTTQADGRVVLVGGRSRRGKKRGPPGSKDWGTALKGCDDYLFIEFLKRCLHWDPSARLTPAQALRHPWISKSVPRPLTTIDKVSGKRVVNPASAFQGLGSKLPPVVGIANKLKANLMSETNGSIPLCSVLPKLIS | Negative
CSNK1D(CK1delta) (protein, left off: a dimerising Fc or GST) MELRVGNRYRLGRKIGSGSFGDIYLGTDIAAGEEVAIKLECVKTKHPQLHIESKIYKMMQGGVGIPTIRWCGAEGDYNVMVMELLGPSLEDLFNFCSRKFSLKTVLLLADQMISRIEYIHSKNFIHRDVKPDNFLMGLGKKGNLVYIIDFGLAKKYRDARTHQHIPYRENKNLTGTARYASINTHLGIEQSRRDDLESLGYVLMYFNLGSLPWQGLKAATKRQKYERISEKKMSTPIEVLCKGYPSEFATYLNFCRSLRFDDKPDYSYLRQLFRNLFHRQGFSYDYVFDWNMLKFGASRAADDAERERRDREERLRHSRNPATRGLPSTASGRLRGTQEVAPPTPLTPTSHTANTSPRPVSGMERERKVSMRLHRGAPVNISSSDLTGRQDTSRMSTSQNSIPFEHHGK | Negative
EPHA2 (protein, left off: a dimerising Fc or GST) HRRRKNQRARQSPEDVYFSKSEQLKPLKTYVDPHTYEDPNQAVLKFTTEIHPSCVTRQKVIGAGEFGEVYKGMLKTSSGKKEVPVAIKTLKAGYTEKQRVDFLGEAGIMGQFSHHNIIRLEGVISKYKPMMIITEYMENGALDKFLREKDGEFSVLQLVGMLRGIAAGMKYLANMNYVHRDLAARNILVNSNLVCKVSDFGLSRVLEDDPEATYTTSGGKIPIRWTAPEAISYRKFTSASDVWSFGIVMWEVMTYGERPYWELSNHEVMKAINDGFRLPTPMDCPSAIYQLMMQCWQQERARRPKFADIVSILDKLIRAPDSLKTLADFDPRVSIRLPSTSGSEGVPFRTVSEWLESIKMQQYTEHFMAAGYTAIEKVVQMTNDDIKRIGVRLPGHQKRIAYSLLGLKDQVNTVGIPI | Weak
CSNK2A2 (protein, left off: a dimerising Fc or GST) MPGPAAGSRARVYAEVNSLRSREYWDYEAHVPSWGNQDDYQLVRKLGRGKYSEVFEAINITNNERVVVKILKPVKKKKIKREVKILENLRGGTNIIKLIDTVKDPVSKTPALVFEYINNTDFKQLYQILTDFDIRFYMYELLKALDYCHSKGIMHRDVKPHNVMIDHQQKKLRLIDWGLAEFYHPAQEYNVRVASRYFKGPELLVDYQMYDYSLDMWSLGCMLASMIFRREPFFHGQDNYDQLVRIAKVLGTEELYGYLKKYHIDLDPHFNDILGQHSRKRWENFIHSENRHLVSPEALDLLDKLLRYDHQQRLTAKEAMEHPYFYPVVKEQSQPCADNAVLSSGLTAAR | Negative
DAPK2 (protein, left off: a dimerising Fc or GST) MFQASMRSPNMEPFKQQKVEDFYDIGEELGSGQFAIVKKCREKSTGLEYAAKFIKKRQSRASRRGVSREEIEREVSILRQVLHHNVITLHDVYENRTDVVLILELVSGGELFDFLAQKESLSEEEATSFIKQILDGVNYLHTKKIAHFDLKPENIMLLDKNIPIPHIKLIDFGLAHEIEDGVEFKNIFGTPEFVAPEIVNYEPLGLEADMWSIGVITYILLSGASPFLGDTKQETLANITAVSYDFDEEFFSQTSELAKDFIRKLLVKETRKRLTIQEALRHPWITPVDNQQAMVRRESVVNLENFRKQYVRRRWKLSFSIVSLCNHLTRSLMKKVHLRPDEDLRNCESDTEEDIARRKALHPRRRSSTS | Negative
DMPK (protein, left off: a dimerising Fc or GST) MSAEVRLRRLQQLVLDPGFLGLEPLLDLLLGVHQELGASELAQDKYVADFLQWAEPIVVRLKEVRLQRDDFEILKVIGRGAFSEVAVVKMKQTGQVYAMKIMNKWDMLKRGEVSCFREERDVLVNGDRRWITQLHFAFQDENYLYLVMEYYVGGDLLTLLSKFGERIPAEMARFYLAEIVMAIDSVHRLGYVHRDIKPDNILLDRCGHIRLADFGSCLKLRADGTVRSLVAVGTPDYLSPEILQAVGGGPGTGSYGPECDWWALGVFAYEMFYGQTPFYADSTAETYGKIVHYKEHLSLPLVDEGVPEEARDFIQRLLCPPETRLGRGGAGDFRTHPFFFGLDWDGLRDSVPPFTPDFEGATDTCNFDLVEDGLTAMVSGGGETLSDIREGAPLGVHLPFVGYSYSCMALRDSEVPGPTPMELEAEQLLEPHVQAPSLEPSVSPQDETAEVAVPAAVPAAEAEAEVTLRELQEALEEEVLTRQSLSREMEAIRTDNQNFASQLREAEARNRDLEAHVRQLQERMELLQAEGATAVTGVPSPRATDPPSHLDGPPAVAVGQCPLVGPGPMHRRHLLLPARVPRPGLSEALSLLLFAVVLSRAAALGCIGLVAHAGQLTAVWRRPGAARAP | Negative
GRK4 (protein, left off: a dimerising Fc or GST) MELENIVANSLLLKARQGGYGKKSGRSKKWKEILTLPPVSQCSELRHSIEKDYSSLCDKQPIGRRLFRQFCDTKPTLKRHIEFLDAVAEYEVADDEDRSDCGLSILDRFFNDKLAAPLPEIPPDVVTECRLGLKEENPSKKAFEECTRVAHNYLRGEPFEEYQESSYFSQFLQWKWLERQPVTKNTFRHYRVLGKGGFGEVCACQVRATGKMYACKKLQKKRIKKRKGEAMALNEKRILEKVQSRFVVSLAYAYETKDALCLVLTIMNGGDLKFHIYNLGNPGFDEQRAVFYAAELCCGLEDLQRERIVYRDLKPENILLDDRGHIRISDLGLATEIPEGQRVRGRVGTVGYMAPEVVNNEKYTFSPDWWGLGCLIYEMIQGHSPFKKYKEKVKWEEVDQRIKNDTEEYSEKFSEDAKSICRMLLTKNPSKRLGCRGEGAAGVKQHPVFKDINFRRLEANMLEPPFCPDPHAVYCKDVLDIEQFSVVKGIYLDTADEDFYARFATGCVSIPWQNEMIESGCFKDINKSESEEALPLDLDKNIHTPVSRPNRGFFYRLFRRGGCLTMVPSEKEVEPKQC | Negative
CHEK1 (protein, left off: small tags and cut ends) MAVPFVEDWDLVQTLGEGAYGEVQLAVNRVTEEAVAVKIVDMKRAVDCPENIKKEICINKMLNHENVVKFYGHRREGNIQYLFLEYCSGGELFDRIEPDIGMPEPDAQRFFHQLMAGVVYLHGIGITHRDIKPENLLLDERDNLKISDFGLATVFRYNNRERLLNKMCGTLPYVAPELLKRREFHAEPVDVWSCGIVLTAMLAGELPWDQPSDSCQEYSDWKEKKTYLNPWKKIDSAPLALLHKILVENPSARITIPDIKKDRWYNKPLKKGAKRPRVTSGGVSESPSGFSKHIQSNLDFSPVNSASSEENVKYSSSQPEPRTGLSLWDTSPSYIDKLVQGISFSQPTCPDHMLLNSQLLGTPGSSQNPWQRLVKRMTRFFTKLDADKSYQCLKETCEKLGYQWKKSCMNQVTISTTDRRNNKLIFKVNLLEMDDKILVDFRLSKGDGLEFKRHFLKIKGKLIDIVSSQKIWLPAT | Strong
DAPK3(ZIPK) (protein, left off: a dimerising Fc or GST) MSTFRQEDVEDHYEMGEELGSGQFAIVRKCRQKGTGKEYAAKFIKKRRLSSSRRGVSREEIEREVNILREIRHPNIITLHDIFENKTDVVLILELVSGGELFDFLAEKESLTEDEATQFLKQILDGVHYLHSKRIAHFDLKPENIMLLDKNVPNPRIKLIDFGIAHKIEAGNEFKNIFGTPEFVAPEIVNYEPLGLEADMWSIGVITYILLSGASPFLGETKQETLTNISAVNYDFDEEYFSNTSELAKDFIRRLLVKDPKRRMTIAQSLEHSWIKAIRRRNVRGEDSGRKPERRRLKTTRLKEYTIKSHSSLPPNNSYADFERFSKVLEEAAAAEEGLRELQRSRRLCHEDVEALAAIYEEKEAWYREESDSLGQDLRRLRQELLKTEALKRQAQEEAKGALLGTSGLKRRFSRLENRYEALAKQVASEMRFVQDLVRALEQEKLQGVECGLR | Negative
